Our source for the ADCC reporter assay, EC50 Value, CHOK1/B7-H3 cells and ADCC reporter assay, Max RLU, CHOK1/B7-H3 cells values is patent US20260008852A1.

This assay has as its target B7-H3 on CHO-K1 cells stably transfected with B7-H3 (GenScript #M00536) (UniProt Q5ZPR3). Put plainly: cell-based or functional assay.

B7-H3 on CHO-K1 cells stably transfected with B7-H3 (GenScript #M00536), sequence (Q5ZPR3 29-534 limits assumed): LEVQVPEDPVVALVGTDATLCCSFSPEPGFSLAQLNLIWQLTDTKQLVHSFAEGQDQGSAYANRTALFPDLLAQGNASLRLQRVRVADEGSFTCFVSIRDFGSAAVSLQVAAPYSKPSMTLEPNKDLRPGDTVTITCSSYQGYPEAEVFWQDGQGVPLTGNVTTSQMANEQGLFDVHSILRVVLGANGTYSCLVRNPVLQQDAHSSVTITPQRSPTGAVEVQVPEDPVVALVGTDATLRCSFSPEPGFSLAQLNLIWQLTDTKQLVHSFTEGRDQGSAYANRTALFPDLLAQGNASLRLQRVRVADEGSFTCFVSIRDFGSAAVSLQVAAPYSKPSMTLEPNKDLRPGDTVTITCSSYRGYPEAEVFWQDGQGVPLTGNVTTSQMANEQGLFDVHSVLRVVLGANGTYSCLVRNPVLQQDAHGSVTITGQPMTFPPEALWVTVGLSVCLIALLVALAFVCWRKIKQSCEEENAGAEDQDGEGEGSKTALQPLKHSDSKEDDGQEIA

The substance Benchmark MGA-271 (antibody) yielded an ADCC reporter assay, EC50 Value, CHOK1/B7-H3 cells of 4.55 µg/mL and an ADCC reporter assay, Max RLU, CHOK1/B7-H3 cells of 162000 RLU.
